Data published in patent US20160169910A1.

Legend:
[1] = biological target: suPAR in human plasma from FSGS patients (human) (UniProt Q03405); experiment: immunodepletion of FSGS plasma, remaining suPAR measured by R&D ELISA
protein G-agarose beads = protein G-agarose beads (UniProt P06654); experiment: mock depletion of FSGS plasma with protein G-agarose beads only, R&D ELISA

Chain of suPAR in human plasma from FSGS patients (Q03405 23-305 limits assumed): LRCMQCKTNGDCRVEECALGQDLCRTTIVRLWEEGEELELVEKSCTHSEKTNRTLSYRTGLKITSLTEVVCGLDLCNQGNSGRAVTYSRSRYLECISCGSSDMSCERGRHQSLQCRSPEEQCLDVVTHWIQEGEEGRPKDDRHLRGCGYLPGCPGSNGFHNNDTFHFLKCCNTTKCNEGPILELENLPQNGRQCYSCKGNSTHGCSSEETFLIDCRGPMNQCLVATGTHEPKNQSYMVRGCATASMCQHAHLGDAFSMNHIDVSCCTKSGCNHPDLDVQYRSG
Chain of suPAR in human plasma from FSGS patients (human) (Q03405 23-305 limits assumed): as above

percent of suPAR removed from human plasma [1]	percent lowering of suPAR level in plasma (protein G-agarose beads)	Substance
> 99%	–	mouse monoclonal anti-suPAR antibody ATN615
–	20 to 50%	suPAR in human plasma from FSGS patients (from UniProt Q03405 23-305) (receptor)
